Paper PMC4504729 (Journal of Medicinal Chemistry, 2014)
Values joined by “and” are separate entries in the source; they are usually repeats but may differ in a detail not shown here. Equal values may be shown once.

B1: TrkAIg2-NMR (domain or fragment, human)
chain: MDDDDDVSFCASVQLHTAVEMHHWCIPFSVDGQPAPSLRWLFNGSVLNETSFIFTEFLEPAANETVRHGCLRLNQPTHVNNGNYTLLAANPCGQASASIMAAFMDNPF

Experiments:
[1] = molecular target: mouse NGF (nerve growth factor, from mouse submaxillary salivary glands) (mouse) (UniProt P01139)
125I-labeled NGF = 125I-labeled NGF (UniProt P01139 122-241, 125I label); experiment: radioligand binding; competition: 15N-labeled TrkAIg2-NMR at varied concentration sequesters 125I-labeled NGF from full-length human TrkA on HEK cells; details: both partners purified
[2] = molecular target: T1, mouse NGF (nerve growth factor, from mouse submaxillary salivary glands) (mouse, UniProt P01139 122-241); experiment: cell-based or functional assay
[3] = molecular target: T1, mouse NGF (nerve growth factor, from …); experiment: SEC; Superdex 75 gel filtration; TrkAIg2-NMR and mouse NGF applied separately and as a 1:1 ratio complex (1 mg/mL of each); 50 mM phosphate buffer, 150 μM NaCl, pH 7.4; sizes from a calibration curve; details: both partners purified

T1 sequence (P01139 122-241): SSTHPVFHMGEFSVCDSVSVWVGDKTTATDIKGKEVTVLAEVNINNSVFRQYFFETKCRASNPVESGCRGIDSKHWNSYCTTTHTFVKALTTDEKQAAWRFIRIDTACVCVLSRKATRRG
125I-labeled NGF, sequence (P01139 122-241): as above
mouse NGF (nerve growth factor, from mouse submaxillary salivary glands) (mouse), sequence (P01139 122-241): as above

Row | Molecule | NGF-dependent PC12 cell survival/proliferation (MTS assay, mouse NGF 5 ng/mL), serial dilutions of TrkAIg2-WT; EC50 of the reduction [1] [nM] | IC50 (125I-labeled NGF) | NGF-dependent PC12 cell survival/proliferation (MTS assay, mouse NGF 5 ng/mL), serial dilutions of TrkAIg2-NMR; EC50 of the reduction [2] [nM] | stoichiometry N [3]
1 | "wild-type" TrkAIg2 (TrkAIg2-WT) (domain or fragment) | 480 |  |  | 
2 | B1 |  | ~5000 nM and ~2000 nM | 2100 | 2 TrkAIg2-NMR monomers per NGF dimer
